Source: PMC5954133, “Functional Characterization of a Small Alarmone Hydrolase in Corynebacterium glutamicum” (Frontiers in Microbiology, 2018)

B1: RelHCg (Corynebacterium glutamicum ATCC 13032) (protein)
chain: MNTLSPRLRKAMNTAAWAHRHHVRKGGGIPYVSHLYSVMYLLASVTNDEDVLIAGLLHDTLEDVPEEYNSAQLEADFGPRVRELVEELTKQPLKSWKARADAYLLHLSAGASLEAVLISTADKLHNLMSILDDLEIHGEDLWQRFNAGKEQQIWWYSEVYQISLQRLGFNELNKQLGLCVEKLLKQSA
notes: full-length; expressed in E. coli ER2566
B2: RelCg (Corynebacterium glutamicum ATCC 13032) (protein)
chain: MSLERNTQKSSMGVRSMSARLARSLTGNRVRTNPVLDPLLSIHRQFHPRADVQVLERAYDTAERLHDGVIRKSGDPYITHPLAVATIAAEIGMDTTTLVAALLHDTVEDTDYSLDDLTRDFGEEVARLVDGVTKLDKVALGAAAEAETIRKMIVAMSQDPRVLVIKVADRLHNMRTMRFLPPEKQAKKARQTLEVIAPLAHRLGMASVKWELEDLSFAILYPKKYEEIVRLVADRAPSRDRYLKEIIDQVTGGLRENNIAAEVLGRPKHYWSIYQKMIVRGRDFDDIFDLVGIRILVDNVNNCYAAIGVVHSLFNALPGRFKDYISAPRFGVYQSLHTTVMGPGGKPLEVQARTHDMHYNAEFGIAAHWRYKETKGSHSGEQAEVDQMAWMRQLLDWQKEAADPNEFLDSLRYDLTSKQIFVFTPKGDVVNLPVNSTPVDFAYAVHTEVGHRCIGAKINGKLVALETKLKSGDRVEVFTSKDQNAGPSRGWQEFVVSPRAKAKIRQWFAKERREEYLEAGRDALAAVIQRGGLPMHRLFTASSMKTVATELHYPDVDALYTAIGSGSVSAQHVVNRLMAIFGDEEDAEDALVARTPFSELVNSRATTESSTGILVEGSPDVMAKLAKCCMPVPGDEIFGFVTRGGGVSVHRTDCTNVEKLKEEPERIVSVSWASEGQGSVFSATLQLEALDRAGLLFELTRVINEQKVSVTAMNSHCSEDRVATVRFTFAVSDTKQLGSLMTQLRNAEGVFDVYRVTSGG
notes: full-length bifunctional RSH; expressed in E. coli ER2566

How the values were obtained:
Experiment in all cases: HPLC-UV pyrophosphohydrolase assay, Eadie-Hofstee
Assay type in all cases: biochemical, Corynebacterium glutamicum
[1] = substrate: Nc1nc2c(ncn2[C@@H]2O[C@H](COP(=O)(O)O)[C@@H](OP(=O)(O)OP(=O)(O)O)[C@H]2O)c(=O)[nH]1; conditions: 1 mM MnCl2, 50 mM HEPES-Na pH 8.0, 200 mM NaCl, 30°C, substrate inhibition, approximate fit from lowest concentrations, only two data points, no error analysis
Source text: (§1) HPLC-UV pyrophosphohydrolase assay, Eadie-Hofstee on […]

[2] = substrate: Nc1nc2c(ncn2[C@@H]2O[C@H](COP(=O)(O)OP(=O)(O)OP(=O)(O)O)[C@@H](OP(=O)(O)OP(=O)(O)O)[C@H]2O)c(=O)[nH]1; conditions: 1 mM MnCl2, 50 mM HEPES-Na pH 8.0, 200 mM NaCl, 30°C, substrate inhibition, approximate fit from lowest concentrations
Source text: as §1

[3] = substrate: Nc1nc2c(ncn2[C@@H]2O[C@H](COP(=O)(O)OP(=O)(O)O)[C@@H](OP(=O)(O)OP(=O)(O)O)[C@H]2O)c(=O)[nH]1; conditions: 1 mM MnCl2, 50 mM HEPES-Na pH 8.0, 200 mM NaCl, 30°C, substrate inhibition, approximate fit from lowest concentrations
Source text: as §1

[4] = substrate: Nc1nc2c(ncn2[C@@H]2O[C@H](COP(=O)(O)O)[C@@H](OP(=O)(O)OP(=O)(O)O)[C@H]2O)c(=O)[nH]1; conditions: 1 mM MnCl2, 50 mM HEPES-Na pH 8.0, 200 mM NaCl, 30°C, substrate inhibition, approximate fit from lowest concentrations
Source text: (§2) HPLC-UV pyrophosphohydrolase assay, Eadie-Hofstee on RelCg

[5] = substrate: Nc1nc2c(ncn2[C@@H]2O[C@H](COP(=O)(O)OP(=O)(O)OP(=O)(O)O)[C@@H](OP(=O)(O)OP(=O)(O)O)[C@H]2O)c(=O)[nH]1; conditions: 1 mM MnCl2, 50 mM HEPES-Na pH 8.0, 200 mM NaCl, 30°C, substrate inhibition, approximate fit from lowest concentrations, only two data points, no error analysis
Source text: as §2

[6] = substrate: Nc1nc2c(ncn2[C@@H]2O[C@H](COP(=O)(O)OP(=O)(O)O)[C@@H](OP(=O)(O)OP(=O)(O)O)[C@H]2O)c(=O)[nH]1; conditions: 1 mM MnCl2, 50 mM HEPES-Na pH 8.0, 200 mM NaCl, 30°C, substrate inhibition, approximate fit from lowest concentrations; remark: listed apart in the source
Source text: as §2

| Protein | Km [1] [µM] | kcat [1] [s⁻¹] | kcat/Km [1] [M⁻¹ s⁻¹] | Km [2] [µM] | kcat [2] [s⁻¹] | kcat/Km [2] [M⁻¹ s⁻¹] | Km [3] [µM] | kcat [3] [s⁻¹] | kcat/Km [3] [M⁻¹ s⁻¹] | Km [4] [µM] | kcat [4] [s⁻¹] | kcat/Km [4] [M⁻¹ s⁻¹] | Km [5] [µM] | kcat [5] [s⁻¹] | kcat/Km [5] [M⁻¹ s⁻¹] | Km [6] [µM] | kcat [6] [s⁻¹] | kcat/Km [6] [M⁻¹ s⁻¹] |
| --- | --- | --- | --- | --- | --- | --- | --- | --- | --- | --- | --- | --- | --- | --- | --- | --- | --- | --- |
| B1 | 144 | 0.294 | 2040 | 90 ± 11 | 0.09 ± 0.003 | 1010 | 101 ± 7 | 0.502 ± 0.018 | 4970 |  |  |  |  |  |  |  |  |  |
| B2 |  |  |  |  |  |  |  |  |  | 734 ± 127 | 0.794 ± 0.071 | 1080 | 422 | 0.563 | 1340 | 511 ± 10 | 0.296 ± 0.004 | 579 |
